The record followed here is PMC10728118, “Mutant GGGGCC RNA prevents YY1 from binding to Fuzzy promoter which stimulates Wnt/β-catenin pathway in C9ALS/FTD”.

For data set [1], the target named is His-YY1 ZF1+ZF2 del352-end (UniProt P25490). Put plainly: EMSA. The settings on record: EMSA: 10 mM HEPES-KOH, 12 mM Tris-HCl, 50 mM NaCl, 50 mM KCl, 5 mM MgCl2, 100 uM ZnCl2, 0.01% NP-40, 5% glycerol, 2.5 mM DTT, pH 7.4, 25 C, 2.5 nM probe; FP: …. On the technique in general: In EMSA bound probe runs differently from free probe, usually more slowly.
Chain of His-YY1 ZF1+ZF2 del352-end (P25490 1-351): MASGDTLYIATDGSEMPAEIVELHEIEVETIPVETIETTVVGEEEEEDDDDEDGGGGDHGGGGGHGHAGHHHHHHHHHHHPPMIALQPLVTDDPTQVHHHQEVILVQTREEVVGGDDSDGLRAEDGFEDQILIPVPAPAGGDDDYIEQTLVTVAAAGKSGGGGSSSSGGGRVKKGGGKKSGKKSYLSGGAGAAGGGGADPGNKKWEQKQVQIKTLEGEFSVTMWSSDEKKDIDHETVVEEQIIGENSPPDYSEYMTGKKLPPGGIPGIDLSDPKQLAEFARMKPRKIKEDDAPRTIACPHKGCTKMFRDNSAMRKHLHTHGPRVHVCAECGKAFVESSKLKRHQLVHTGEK
Data set [2] addresses His-YY1 ZF1+ZF2+ZF3 del382-end (UniProt P25490). Put plainly: EMSA. The settings on record: EMSA: 10 mM HEPES-KOH, 12 mM Tris-HCl, 50 mM NaCl, 50 mM KCl, 5 mM MgCl2, 100 uM ZnCl2, 0.01% NP-40, 5% glycerol, 2.5 mM DTT, pH 7.4, 25 C, 2.5 nM probe; FP: ….
Data set [3] has as its target T1, His-YY1 full-length (UniProt P25490 1-414). Put plainly: EMSA; EMSA: 10 mM HEPES-KOH, 12 mM Tris-HCl, 50 mM NaCl, 50 mM KCl, 5 mM MgCl2, 100 uM ZnCl2, 0.01% NP-40, 5% glycerol, 2.5 mM DTT, pH 7.4, 25 C, 2.5 nM probe; FP: 50 mM Tris-HCl, 100 mM KCl, 2.5 mM MgCl2, 100 uM ZnCl2, pH 7.4, 25 C. To be noted: protein: recombinant, tags: His, label: Cy5.
Data set [4] deals with T1, His-YY1 full-length. In words: fluorescence polarisation; EMSA: 10 mM HEPES-KOH, 12 mM Tris-HCl, 50 mM NaCl, 50 mM KCl, 5 mM MgCl2, 100 uM ZnCl2, 0.01% NP-40, 5% glycerol, 2.5 mM DTT, pH 7.4, 25 C, 2.5 nM probe; FP: 50 mM Tris-HCl, 100 mM KCl, 2.5 mM MgCl2, 100 uM ZnCl2, pH 7.4, 25 C. To be noted: protein: recombinant; tags: His; label: FAM. (In fluorescence polarisation assays a small probe gives low polarisation when free and higher when bound to something large.)

T1 sequence (P25490 whole entry): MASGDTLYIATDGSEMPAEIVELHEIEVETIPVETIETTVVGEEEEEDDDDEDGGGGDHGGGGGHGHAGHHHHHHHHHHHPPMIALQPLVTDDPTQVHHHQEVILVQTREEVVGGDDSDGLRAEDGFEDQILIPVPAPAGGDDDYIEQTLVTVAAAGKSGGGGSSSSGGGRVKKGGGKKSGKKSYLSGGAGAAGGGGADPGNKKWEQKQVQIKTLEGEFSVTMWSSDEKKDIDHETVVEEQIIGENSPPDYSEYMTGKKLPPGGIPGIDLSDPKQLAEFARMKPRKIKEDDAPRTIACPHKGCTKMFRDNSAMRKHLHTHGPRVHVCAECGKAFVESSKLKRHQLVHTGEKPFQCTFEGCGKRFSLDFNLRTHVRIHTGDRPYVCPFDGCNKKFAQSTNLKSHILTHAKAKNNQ
Chain of His-YY1 ZF1+ZF2+ZF3 del382-end (P25490 1-381): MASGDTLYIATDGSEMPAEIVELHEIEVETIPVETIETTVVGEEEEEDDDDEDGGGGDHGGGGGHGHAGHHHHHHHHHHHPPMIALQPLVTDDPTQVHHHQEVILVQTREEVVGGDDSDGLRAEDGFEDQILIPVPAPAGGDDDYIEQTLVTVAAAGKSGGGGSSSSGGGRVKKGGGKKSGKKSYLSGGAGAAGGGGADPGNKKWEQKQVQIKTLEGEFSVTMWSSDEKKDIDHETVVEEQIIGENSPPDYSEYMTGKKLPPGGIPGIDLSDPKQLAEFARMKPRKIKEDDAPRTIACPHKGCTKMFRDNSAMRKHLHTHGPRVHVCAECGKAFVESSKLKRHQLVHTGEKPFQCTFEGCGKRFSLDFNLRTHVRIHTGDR

As to “GGGGCCGGGGCCGGGGCCGGGGCCGGGGCCGGGGCCGGGGCCGGGGCC [(GGGGCC)8 RNA]”, the values for the Kd in data set [1] and in data set [2] were 129 nM and 59 nM, respectively.
As to GGGGCCGGGGCCGGGGCCGGGGCCGGGGCCGGGGCCGGGGCCGGGGCC (ssRNA) [(GGGGCC)8 RNA], the Kd with His-YY1 full-length [3] amounted to 46.8 ± 3.42 nM.
In the case of CGGGGCCGGGGCCGGGGCCGGGGCCGGGGCCGGGGCCGGGGCCGGGGCCG (ssRNA) [FAM-(GGGGCC)8 RNA], the Kd in the data set with His-YY1 full-length [4] amounted to 45.3 ± 3.67 nM.

B1: AAV P5 DNA (dsDNA)
DNA 1: AGGGTCTCCATTTTGAAGCG
DNA 2: CGCTTCAAAATGGAGACCCT
Consider B1, for which the binding result with His-YY1 full-length [3] (blunt) was “binds”.
For GGGCGCGGCGCGCGGGCCGGGGCGGGCGCGCGGGCGGGGCGCGGCGCG (ssRNA) [randomised GC-rich RNA], the Kd in the data set with His-YY1 full-length [3] was 201 ± 17.9 nM.

B2: FuzzyYY1-a DNA (dsDNA)
DNA 1: TGGGCAACATGGCGACACCC
DNA 2: GGGTGTCGCCATGTTGCCCA
Take B2: in the data set with His-YY1 full-length [3] (blunt), the Kd came to 242 ± 21.7 nM.

B3: FuzzyYY1-b DNA (dsDNA)
DNA 1: AGTCCTAAATGGGGGAGGAG
DNA 2: CTCCTCCCCCATTTAGGACT
With B3, in the data set with His-YY1 full-length [3] (blunt), the Kd was found to be 405 ± 45.9 nM.

B4: PP7 RNA (ssRNA)
RNA: UAAAGUAAGAUAAGGCAAGACAAGGUAAAACGGAACAGAACCGAAGGGAAGAGAAGCAAAGCGAAAGGAAAUAAACAAAAGAAAAAUUCGUAGAAUUCCG
With B4, the binding result in the data set with His-YY1 full-length [3] is recorded as “binds”.

One may read the Kd as the equilibrium constant for the complex coming apart.
